Residue numbers refer to the chain shown, from its start.

Data set [1] addresses T1, MotA E153A (Enterobacteria phage T4, UniProt P22915 1-211, E153A).
T1 sequence: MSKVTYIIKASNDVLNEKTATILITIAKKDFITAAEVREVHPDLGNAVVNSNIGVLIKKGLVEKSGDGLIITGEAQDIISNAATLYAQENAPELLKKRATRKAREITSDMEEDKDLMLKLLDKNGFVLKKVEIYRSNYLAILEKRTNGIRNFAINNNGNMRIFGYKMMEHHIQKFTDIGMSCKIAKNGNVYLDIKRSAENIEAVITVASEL
Kind of data set: EMSA; slightly tighter than wt; EMSA: 0.01 pmol 32P-DNA, 1.7 pmol MotA, native 12% PAGE in 1x TBE at 4 C, other conditions as in ref 14; SPR: biotin-DNA on neutravidin chip, buffer as in ref 2. On the technique in general: Mobility shift assays separate free from complexed probe on a gel.

The next data set concerns the target T2, MotA Y134A (Enterobacteria phage T4, UniProt P22915 1-211, Y134A).
T2 sequence: T1 sequence with Y134A, A153E
Kind of data set: EMSA; similar to wt; EMSA: 0.01 pmol 32P-DNA, 1.7 pmol MotA, native 12% PAGE in 1x TBE at 4 C, other conditions as in ref 14; SPR: biotin-DNA on neutravidin chip, buffer as in ref 2.

For data set [2], the target named is T1, MotA E153A. The data set can be described thus: EMSA; no difference; data not shown; EMSA: 0.01 pmol 32P-DNA, 1.7 pmol MotA, native 12% PAGE in 1x TBE at 4 C, other conditions as in ref 14; SPR: biotin-DNA on neutravidin chip, buffer as in ref 2.

B1: EMSA 19-mer unmodified (dsDNA)
DNA 1: AATTATTTGCTTTAGATTA
DNA 2: TAATCTAAAGCAAATAATT
Take B1: the binding result with MotA E153A [1] and with MotA Y134A was “binds” in each case.

B2: EMSA 19-mer GHMe/unmod (dsDNA)
DNA 1: AATTATTTGCTTTAGATTA
DNA 2: TAATCTAAAGCAAATAATT
modifications: beta-D-glucosyl-5-hydroxymethyl-dC at top C10
B2: the binding result with MotA E153A [2] is listed as “binds”.

Source of the values: PMC6007404 (Nucleic Acids Research, 2018).
